Measurements from the nanobody polyreactivity screen of Harvey et al. (2022).

Assay: yeast display, Sf9 membrane polyspecificity reagent, FACS + sequencing; frameworks hold sequencing errors
How it was run: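 Polyreactivity labels are assigned by the sorting gate from which each nanobody was recovered. The gates were low and high (top ~1%), set on anti-HA fluorescence for expression and streptavidin fluorescence for reagent binding. Before sorting, galactose-induced (36–48 hours) yeast display cells were stained for 1 hour at 4 °C with 10% biotinylated, detergent-solubilized Sf9 membrane reagent.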

Sequence	polyreactivity (PSR sort gate)
QVQHVESGGGLVQAGGSLRLSCAASGSIFLVYAMGWYRLAPGKERELVAAISNSGSTNYADSVKGRFTISRDNAKNTVYLQMNSLKPEDTAVYYCAKDSLVDHVGGYDYWGHGTQVTVSS	low polyreactivity
QVQLVESGGGLVQAGGSLRLSCAASGFTFKGNAMGWYRQAPGKERELVATITQSAGSTYYADSVKGRFTISRDNAKNTVYLQMNSLKPEDTAVYYCAAYLSETRPYLYDYWGQGTQVTVSS	low polyreactivity
QVQLVESGGGLVQAGGSLRLSCAASGRISFVNAMGWYRQAPGKERELVAAISRGGSTNYADSVKGRFTISRDNAKNTVYLQMNSLKPEDTAVYYCAAQGNNYVRHTYGYWGQGTQVTVSS	low polyreactivity
QVQLVESGGGLVQAGGSLRLSCAASGITFRWYAMGWYRQAPGKERELVASISSGGITTYADSVKGRFTISRDNAKNTVYLQMNSLKPEDTAVDYCNAVGHTSIRRALDILDYWGQGTQVTVSS	high polyreactivity
QVQLVESGGGLVQAGGSLPLSCAAYGFTFWYYAMGWYRQAPGKERELVAAISTGGRTNYADSVKGRFTISRDNAKNTVYLQMNSLKPEDTAFYYCAADQSYFYLYRYRFDYWGQGTQVTVSS	high polyreactivity
QVQLVESGGGLVQAGGSLRLSCAASGSTYRTYPMGWYRQAPGKERELVASISYRSGRTYYADSVKGRFTISRDNAKNTVYLPMNSLKPEDTAVYYCNSRMYGVISRMDYWGQGTQVTVSS	high polyreactivity
QVQLVESGGGLVQAGGSLRLICAASRSNFFPYAMGWYRQAPGKERELVDTISGSTGRTYYADSVKGRFTISRDNAKNTVYLQMNSLKPQDTAVYYCATSVGYYLAPIKYDYWGQRTQVTVSS	low polyreactivity
QVQLVESGGGLVQAGGSLRLSCAASGSTFDPNVMGWYRQAPGNERELVADITTTGVSTYYADSVKGRFTISRDNAKNTVYLQMNSLKPEDTAVYYCNAKLYWYLTRDAYRYRYTYDYWGQGTQVTVSS	low polyreactivity
QVQLVESGGGLVQAGGSLRLSCAASGFTFDKYGMGWYRQAPGKERELVAAISSGGSTNYADSVKGRFTISRDNAKNTVYLQMNSLKPEDSAVYYCAARYYRYGRFRAYSWWTYGYWGQGTQVTVSS	high polyreactivity
QVQLVESGGGLVQAGGSLRLSCAASGITFIDYAMGGYRQAPGKVRELVAAITVRGSTYYADSVKGRFTISRDNAKNTVYLQMNSLKPEDTAVYYCAADTYVAADSPVTGERDSFDYWGQGTQVTVSS	low polyreactivity
QVQLVESGGALVQAGGSLRLSCAASGFIVDAYAMGWYRQAPGKERELVAALTRGNTYYADSVKGRFTISRDNAKNTVYLQMTSLKPEDTGVSCCAARSWQSYRSQVTHSSTLDYWGQGTQVTVSS	low polyreactivity
QVQLVESGGGLVQAGGSLRLSCAASGSTFTVNGMGWYRQAPGKERELVASITWSGGSTYYADSVKGRFTISRDNAKISVYLHMTSLIPEDTAVYYCAADEKLYITGYDYWGQGTQVTVSS	low polyreactivity
QVQLVESAGGLVQAGASLRLSCAASGGTSPVYAMGWYRQAPGKERELVAAIRYSGGRTNYADSVKGRFTISRDNAKNTVYLQMNSLKPEDTAVYYCAARGYRYQGDYWGQGTQVTVSS	high polyreactivity
QVQLVESGGGLDQEGGSLRLSSAASGRTFRGYAMGWYIQAPGKEREIVDAISRGTVGTYYADSVKGRFTISRDNAKNTVYLQMISLKPEDTAVYYCAADRFANFSNLRLGYYSWGQGTQLTVSS	low polyreactivity
QVQLVESGGGLVQAGGSLRLSCAASGSTFGGNAMGWYRQAPGKERELVAVISKRGGSTYYADSVKGRFTISRDNAKNTVYLQMNSLKAEDTAVYYCAATYSRYWSPTYDYWGEGTQVTVSS	high polyreactivity
QVQLVESGGGLVQAGGSLRLSCAASGRIFDNNAMGWYIQAPGKERELVAAIDWPGGSTDYADSVKGRFTISRDNAKNTVYLQMNSLIPEDTAVYYCVAGNVPYWHGNSYDYWGQGTQVTVSS	low polyreactivity
QVQLVESGGGLVQAGGSLRLSCAASGRIFGYNAMGWYRQAPGKERELVAAIRGGGSTYYADSVKGRFTISRDNAKNSVYLQMYSLKPEDSAFYFCAATSYTYVLSPYRGDYWGQGTQVNVSS	high polyreactivity
QVQLQESGGGLMQAGGSQRLSCAASGSISYYSDMGWYRQAPGKEREFVAGIGYGTTTNYADSVKGRFTTSRDNAKKTVYLQMISIKPEDTAVYYCAAYQGNGYEFYYWGQGTQVTVRS	low polyreactivity
QVQLVESGGGLVQAGGSLRLSCAASGRIFHYYAMGWYRQAPGKERELVAASTFRGGNTYADSVKGRFTISRDNAKNTVYLQMNSLKPEDTAVYYCADSRLSGYYSRYGYWGQGTQVTVSS	high polyreactivity
QVQHVESGGGLVQAGGSLRLSCAASGSTFTWYTMGWYRQAPGKERELVATIRKRGGSTYYADSVKGRFTISRDNAKNTVYLQMNSLKPEDTAVYYCAAVYKVHSGLYEYWGQGTQVTVSS	high polyreactivity
QVQLVESGGGLVQAGGSLRLSCASSGRTFRRYAMGWYRQAPGKERELVAAITWSGGSTYYADSVKGRFTFSRDYGKNTVYLQMNSLKPADTAEYYCAVSPLYSTSYYGLRKGYYWGQGTQVTVSS	high polyreactivity
QVQLVESGGGLVQAGGSLRLSCAASGSISAGNAMGWYRQAPGKERELVAAISISAGRTYYADSVKGRFTISRDNAKNTVYLQMNSLKPEDTAVYYCNAYSSYIKYDYWGQGTQVTVSS	high polyreactivity

Sequence	polyreactivity (PSR sort gate)
QVQLVESGGGLVQAGGSLRLSCAASGRIFNGNAMGWYRQAPGKERELVAAISTSGGRTYYADSVKGRFTISRDNAKNTVYLQMNSLKPEDTAVYYCAARYFRRDYIDYDYWGQGTQVTVSS	low polyreactivity
QVQLVESGGGLVQAGGSLRLSCAASGITFGDNAMGWYRQAPGKERELVAAISSGGSTDYADSVKGRFTISRDNAKNTVYLQMNSLNPEDTAVYYCAVDWVSVPEYDYWGQGTQVTVSS	low polyreactivity
QVQLVESGGGLVQAGVSLRLSCAASGSIFQSYDMGWYRQEPGKEREVVAAISWSGSTTYYADSVKGRFTLSRDNAKNTVYLQMNSLKPEDTAVYYCAVDSNPPDWWAVIYGFWGQGTQVTVSS	low polyreactivity
QDQLVESGGGIVQAGGSLRLSCAASGRTFGINAMGWSRQAPGKERELVAVISCGDGGTYYADSVKWRFTISRDNAKNTVYLQMKSLKPEDTAVYYCSSEYQSTSLWGGHFVINPYDYWGQATQVTVSS	low polyreactivity
QVQLVESGGGLVQAGGSLRLSCAASGSTFYKYAMGWYRQAPGKERELVASISRSGGSTSYADSVKGRFTISRDYAKNTVYLQMNSLKPEDTAVYYCAATWRQHPGSMGYWGQGTQVTVSS	high polyreactivity
QVQLVESGGGLVQAGGSLRLSCAASGSIFTVYAMGWYRPAPGTERELVARISSGAGTTYADSVKGRFTISRDNAKNTVYVQMKSLTPEDTAVYYCAAYTWDTDHYWYGYVPYDYWGQGTQVSVSS	low polyreactivity
QVQLVESGGGLVQAGGSLRLICAASGSTFLKYTMVWYRQAPWKERELVAAISKSGGSTYYADSVKGRFTISRDHAKNTVYLQMNSLKPEDTAVYYCAKVRSWVSSYGYGYWGQGTQVTVSS	high polyreactivity
QVQLVESGGGLVQAGGSLRLSCAASGYTFSDNAIGWYRQAPGKERELVAAITSGVSTYYADSVKGRFTISRDNAKNTVYLQMNSLKPEDTAVYYCAKDVAVYADLYQGAPYGYWGQGTQVTVSS	low polyreactivity
QVQLVESGGGLVQAGGSLRLICAASGTIFDIYAMGWYRQAPGKERELVAAISLSAGSTYYADSVKGRFTISRDNAKNTVYLQMNSLKPEDTAGYYFNADGWYGYWGQGTQVTVSS	low polyreactivity
QVQLVESGGGLVQAGGSLRLSCAASGLTLRTNSMRLYIQAPGKERELVAAISRSGVRTYYAHSVKGRFTISRDNAKNTVYLQMNSLKPEDTAVYYCNAEFSPYPYDYWGQGTQVTVSS	high polyreactivity
QVQLVESAGGLFQAGGSLRLSCAASGRTFYSNTMGWYRQAPGKEREFVAAIPSIVGSTYYADSVKGRFTISRDNSKNTVYLQMKSLKPEDTAVYDCAVTDYYSYLLRYDSWGQGTEVTVSS	low polyreactivity
QVQLVESGGGLVQAGGSLRLSCASSGSNVYIYAMGWYRQAPGKERELVAAISSAGSTYYADSVKGRFTISRDNAKNTVYLQMNSLKPEDTAVYYCAARAQYPGWRYNYWGQGTQVTVSS	high polyreactivity
QVQLVESGGGLVQAGGSLRLSCAASGRTFGRYAMGWYRQAPGKERELVAAISYSTDSTYYADSVKGRFTISRDNAKNTVYLQMNSLKPEDTAVYYCAADRLRTSGYKTIYDYWGQGTQVTVSS	low polyreactivity
QVQLVESGGGLVQAGGSLRLTCAASGSIFYSYAMGWYRQAPGKERELVAAISWDASTYYADSVNGRFTISRDNAKNTVYLQMHSLKPEDSAVYYCNADIPYFFVFDAYDYWGQGTQVTVSS	low polyreactivity
QVQLVESGGGLVQAGGSLRLSCAASGRIFGDYAMGWYRQAPGKEMELVAAITSAGSTHYADSVKGRFTISRDNAKNTVYLQMNILKPDDTAVYYCAADGIARAYVLFDAYDFLYDYWGQGTHVTVSS	low polyreactivity
QVQLGESGGGLVQAGGSLRLSCAASGSIFFLYAMGWYRQAPGKERELVAAISLSTGNTYYADSVKGRFTISRDNAKNTVYVQKNSLKPEDTAVYYCAAEDYWSAYYWGQGTQVTVSS	high polyreactivity
QVQLVESGGGLVQAGGSLRLSCAASGRTFKWNPMGWYRQAPGKERELVAAITRSDGRTFYADSVKGRFTISRDNAKNTVYLQMNSLKPEDSAVYYCNALGYRNSVIYSGFDYWGQGTQVTVSS	low polyreactivity
QVQLVESGGGLVQAGGSLRLSCAASGFFFEINAMGWYRQAPGKERELVAVITNSGGSTYYADSVKGRFTISRDNAKNTVYLQMNSLKPEDTAVYYCAADAVHYTNDWYDYWGQGTQVTVSS	low polyreactivity
QVQLVESGGGLVQAGGSLRLSCAASGFIYVYNAMGWYRKAPGKEREFVAGISRSGGNTYYADSVKGRFTISRDNAKNTVYLQMNSLKPEDTAVYYCAVVNRRFGFPNVALRSNYGDYWGQGTQVTVSS	low polyreactivity
QVQLVESGGGLVQAGGSLRLSCAASGSIFKAYAMGWYRQAPGKERELVAAITWSAGSTYYADSVKGRFTISRDNAKNTVYLQMNSLKPEDTAVYYCAAEVRGSYYLTGYDYWGQGTQVTVSS	high polyreactivity
QVQLVESGGGLVQAGGSLRLSCAASGSTLSKYAMGWYRQAPGKEREFVAAISRSGGSTYYADSVKGRFTISRDKAKNTVYLQMNSLKPEDTAVYYCAKVLRTFSGLYYWGQGTQVTVSS	high polyreactivity
